Results as given in US20250145729A1.

Biological target: cyno CD98hc (cynomolgus monkey)
Assay: SPR (Biacore)

Kd: 1500 nM
Substance: LLB2.C.1 (from UniProt P0DOX5 233-449) (Fc fusion)
